# Reference: patent US20200255516A1 (JIANGSU HENGRUI MEDICINE, published 2020)
# T1: Full-length human TIGIT on CHO cells overexpressing TIGIT (human, UniProt Q495A1 22-244)
# T1 construct: also called TIGIT-CHO cells; CHO cells overexpressing human TIGIT
# T1 sequence: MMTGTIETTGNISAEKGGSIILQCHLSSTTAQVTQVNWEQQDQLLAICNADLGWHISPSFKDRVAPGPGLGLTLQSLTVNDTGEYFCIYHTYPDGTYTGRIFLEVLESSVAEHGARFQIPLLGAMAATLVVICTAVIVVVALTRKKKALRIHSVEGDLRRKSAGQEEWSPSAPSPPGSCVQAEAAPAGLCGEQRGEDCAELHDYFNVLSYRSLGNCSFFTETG
# T2: TIGIT fusion protein with Fc or mFc tag (human, UniProt Q495A1 22-141)
# T2 construct: extracellular domain; also called TIGIT-Fc; TIGIT-mFc
# T2 sequence (looked up): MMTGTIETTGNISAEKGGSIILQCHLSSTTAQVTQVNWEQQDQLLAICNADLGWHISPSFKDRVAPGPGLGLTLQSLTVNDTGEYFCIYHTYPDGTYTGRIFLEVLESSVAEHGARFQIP
# T3: human TIGIT (Sinobiological Co., Ltd., Cat. 10917-H08-H) (human, UniProt Q495A1 22-141)
# T3 construct: also called huTIGIT; TIGIT-His
# T3 sequence (looked up): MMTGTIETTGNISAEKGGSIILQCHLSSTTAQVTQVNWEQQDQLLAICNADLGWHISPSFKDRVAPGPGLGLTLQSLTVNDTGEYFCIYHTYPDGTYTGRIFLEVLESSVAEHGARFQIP
# T4: human TIGIT on SEB-activated human PBMC (human, UniProt Q495A1)
# T4 construct: native, on the cell surface
# T4 sequence (receptor chain, looked up): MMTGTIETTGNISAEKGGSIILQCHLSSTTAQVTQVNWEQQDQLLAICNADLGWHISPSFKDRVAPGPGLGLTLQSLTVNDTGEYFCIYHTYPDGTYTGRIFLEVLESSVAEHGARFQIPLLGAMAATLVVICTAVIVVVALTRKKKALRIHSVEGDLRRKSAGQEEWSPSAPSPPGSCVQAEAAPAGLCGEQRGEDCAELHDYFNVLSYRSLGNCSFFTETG
# B1: h1707-02 (antibody, human IgG4 S228P, kappa, V domains shown)
# VH: EVQLVESGGGLVQPGGSLRLSCAASGFTFSDYHMYWVRQAPGKGLEWVAYISKGGISTYYPDTVKGRFTISRDNAKNSLYLQMSRLRAEDTAVYYCARQSSYDFAMDYWGRGTLVTVSS
# VL: DIQMTQSPSFLSASVGDRVTITCKASQDVGTSVAWYQQKPGKAPKLLIYWASARHTGVPSRFSGSGSGTDFTLTISSLQPEDFATYYCQQYSSYPLTFGQGTKLEIKR
# notes: also called humanized TIGIT antibody h1707-02
# B2: h1711-01 (antibody, V domains shown)
# VH: EVQLVQSGAEVKKPGSSVKVSCKASGGTFSNYWIGWVRQAPGQGLEWMGDIYPGGAYTNYNEKFKDRVTITADKSTSTAYMELSSLRSEDTAVYYCARGDYYDSSGRAMDYWGQGTLVTVSS
# VL: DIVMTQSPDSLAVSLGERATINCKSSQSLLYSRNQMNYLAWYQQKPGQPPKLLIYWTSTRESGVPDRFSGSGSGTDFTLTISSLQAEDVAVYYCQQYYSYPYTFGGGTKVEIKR
# B3: h1711-03 (antibody, human IgG4 S228P, kappa, V domains shown)
# VH: EVQLVQSGAEVKKPGSSVKVSCKASGYTFSNYWIGWVRQAPGQGLEWIGDIYPGGAYTNYNEKFKDRVTITADKSTSTAYMELSSLRSEDTAVYYCARGDYYDSSGRAMDYWGQGTLVTVSS
# VL: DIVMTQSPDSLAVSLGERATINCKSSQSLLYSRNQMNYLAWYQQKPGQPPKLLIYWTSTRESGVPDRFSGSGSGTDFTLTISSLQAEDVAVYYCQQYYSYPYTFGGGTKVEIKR
# B4: h1711-02 (antibody, human IgG4 S228P, kappa, V domains shown)
# VH: EVQLVQSGAEVKKPGSSVKVSCKASGGTFSNYWIGWVRQAPGQGLEWIGDIYPGGAYTNYNEKFKDRVTITADKSTSTAYMELSSLRSEDTAVYYCARGDYYDSSGRAMDYWGQGTLVTVSS
# VL: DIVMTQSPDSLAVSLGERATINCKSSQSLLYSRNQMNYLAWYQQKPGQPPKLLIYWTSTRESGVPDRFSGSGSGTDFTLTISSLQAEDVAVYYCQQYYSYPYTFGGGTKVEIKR
# B5: 10A7 hIgG4 (antibody, V domains shown)
# VH: EVQLVESGGGLTQPGKSLKLSCEASGFTFSSFTMHWVRQSPGKGLEWVAFIRSGSGIVFYADAVRGRFTISRDNAKNLLFLQMNDLKSEDTAMYYCARRPLGHNTFDSWGQGTLVTVSS
# VL: DIVMTQSPSSLAVSPGEKVTMTCKSSQSLYYSGVKENLLAWYQQKPGQSPKLLIYYASIRFTGVPDRFTGSGSGTDYTLTITSVQAEDMGQYFCQQGINNPLTFGDGTKLEIKR
# B6: ch1711 (antibody, V domains shown)
# VH: QVQLQQSGTELVRPGTSVKMSCKASGYTFTNYWIGWAKQRPGHGLEWIGDIYPGGAYTNYNEKFKDKATLTADKSSSTAYMQFSSLTSEDSAIYYCTRGDYYDSSGRAMDYWGQGTSVTVSS
# VL: DIVMSQSPSSLAVSVGEKVSMSCKSSQSLLYSRNQMNYLAWYQQKPGQSPKLLIYWTSTRESGVPDRFTGSGSGTDFTLTISSVKAEDLAVYYCQQYYSYPYTFGGGTKLEIK
# notes: also called chimeric antibody corresponding to m1711
# B7: h1708-05 (antibody, human IgG4 S228P, kappa, V domains shown)
# VH: EVQLVQSGAEVKKPGASVKVSCKASGYTFTNYWMHWVRQAPGQGLEWMGRIDPDSTGSKYNEKFKTRVTMTVDTSTSTVYMELSSLRSEDTAVYYCAREGAYGYYFDYWGQGTLVTVSS
# VL: DIQMTQSPSSLSASVGDRVTITCRASENIYSYLAWYQQKPGKSPKLLIYNARTLAEGVPSRFSGSGSGTDFTLTISSLQPEDFATYYCQYHSGSPLPFGGGTKVEIKR
# notes: also called humanized TIGIT antibody h1708-05
# B8: h1708-01 (antibody, human IgG4 S228P, kappa, V domains shown)
# VH: EVQLVQSGAEVKKPGASVKVSCKASGYTFTNYWMHWVRQAPGQGLEWMGRIDPDSTGSKYNEKFKTRVTMTRDTSTSTVYMELSSLRSEDTAVYYCAREGAYGYYFDYWGQGTLVTVSS
# VL: DIQMTQSPSSLSASVGDRVTITCRASENIYSYLAWYQQKPGKAPKLLIYNARTLAEGVPSRFSGSGSGTDFTLTISSLQPEDFATYYCQYHSGSPLPFGGGTKVEIKR
# notes: also called humanized TIGIT antibody h1708-01
# B9: h1708-06 (antibody, human IgG4 S228P, kappa, V domains shown)
# VH: EVQLVQSGAEVKKPGASVKVSCKASGYTFTNYWMHWVRQAPGQGLEWIGRIDPDSTGSKYNEKFKTRVTMTVDTSTSTAYMELSSLRSEDTAVYYCAREGAYGYYFDYWGQGTLVTVSS
# VL: DIQMTQSPSSLSASVGDRVTITCRASENIYSYLAWYQQKPGKSPKLLIYNARTLAEGVPSRFSGSGSGTDFTLTISSLQPEDFATYYCQYHSGSPLPFGGGTKVEIKR
# notes: also called humanized TIGIT antibody h1708-06
# B10: h1708-04 (antibody, human IgG4 S228P, kappa, V domains shown)
# VH: EVQLVQSGAEVKKPGASVKVSCKASGYTFTNYWMHWVRQAPGQGLEWMGRIDPDSTGSKYNEKFKTRVTMTRDTSTSTVYMELSSLRSEDTAVYYCAREGAYGYYFDYWGQGTLVTVSS
# VL: DIQMTQSPSSLSASVGDRVTITCRASENIYSYLAWYQQKPGKSPKLLIYNARTLAEGVPSRFSGSGSGTDFTLTISSLQPEDFATYYCQYHSGSPLPFGGGTKVEIKR
# notes: also called humanized TIGIT antibody h1708-04
# B11: h1708-02 (antibody, human IgG4 S228P, kappa, V domains shown)
# VH: EVQLVQSGAEVKKPGASVKVSCKASGYTFTNYWMHWVRQAPGQGLEWMGRIDPDSTGSKYNEKFKTRVTMTVDTSTSTVYMELSSLRSEDTAVYYCAREGAYGYYFDYWGQGTLVTVSS
# VL: DIQMTQSPSSLSASVGDRVTITCRASENIYSYLAWYQQKPGKAPKLLIYNARTLAEGVPSRFSGSGSGTDFTLTISSLQPEDFATYYCQYHSGSPLPFGGGTKVEIKR
# notes: also called humanized TIGIT antibody h1708-02
# B12: h1708-03 (antibody, human IgG4 S228P, kappa, V domains shown)
# VH: EVQLVQSGAEVKKPGASVKVSCKASGYTFTNYWMHWVRQAPGQGLEWIGRIDPDSTGSKYNEKFKTRVTMTVDTSTSTAYMELSSLRSEDTAVYYCAREGAYGYYFDYWGQGTLVTVSS
# VL: DIQMTQSPSSLSASVGDRVTITCRASENIYSYLAWYQQKPGKAPKLLIYNARTLAEGVPSRFSGSGSGTDFTLTISSLQPEDFATYYCQYHSGSPLPFGGGTKVEIKR
# notes: also called humanized TIGIT antibody h1708-03
# B13: 22G2-H3Q (antibody, human IgG4 S228P, kappa, V domains shown)
# VH: QVQLQESGPGLVKPSETLSLTCTVSGGSVSSGIYYWSWIRQPPGKGLEWIGYIYYSGSTNYNPSLKSRVTISVDTSKNQFSLKLSSVTAADTAVYYCARDYYVSGNYYNVDYYFFGVDVWGQGTTVTVSS
# VL: EIVLTQSPATLSLSPGERATLSCRASQSVSSYLAWYQQKPGQAPRLLIYDASNRATGIPARFSGSGSGTDFTLTISSLEPEDFAVYYCQQRSNWPPLFTFGPGTKVDIKR
# How the values were obtained:
# [1] = biological target: T1, Full-length human TIGIT on CHO cells …; experiment: cell ELISA on fixed CHO cells overexpressing human TIGIT
# [2] = biological target: T2, TIGIT fusion protein with Fc or mFc tag; experiment: FACS blocking assay: TIGIT-mFc pre-incubated with the antibody, added to CHO cells overexpressing CD112 (blocked ligand), PE anti-mouse IgG, MFI
# [3] = biological target: T3, human TIGIT (Sinobiological Co., Ltd., …); experiment: SPR (Biacore T200), antibody captured via Protein A, huTIGIT in mobile phase, 1:1 Langmuir fit
# [4] = biological target: T2, TIGIT fusion protein with Fc or mFc tag; experiment: HTRF blocking assay: TIGIT-Fc or TIGIT-mFc with biotinylated CD155 as the blocked ligand, ratio 665/620
# [5] = biological target: T2, TIGIT fusion protein with Fc or mFc tag; experiment: ELISA: human TIGIT-Fc or TIGIT-mFc captured by coated anti-Fc antibody, HRP secondary antibody, OD450
# [6] = biological target: T2, TIGIT fusion protein with Fc or mFc tag; experiment: blocking cell ELISA: TIGIT-hFc or TIGIT-mFc (0.2 ug/ml) pre-mixed with the antibody, added to fixed CHO cells overexpressing CD155 (blocked ligand), OD450
# [7] = biological target: T4, human TIGIT on SEB-activated human PBMC; experiment: flow cytometry on SEB-activated human PBMC, PE anti-human IgG, MFI
# [8] = biological target: T5, cynoTIGIT-mFc (fusion protein of cynoTIGIT extracellular domain and mouse IgG2a Fc fragment) (cynomolgus); experiment: ELISA: cynomolgus TIGIT-Fc or TIGIT-mFc captured by coated anti-Fc antibody, HRP secondary antibody, OD450
# T5 construct: also called monkey TIGIT; cynomolgus TIGIT-mFc fusion protein
# [9] = biological target: T1, Full-length human TIGIT on CHO cells …; experiment: FACS blocking assay on TIGIT-CHO cells; competitor CF633-labeled CD155-Fc at 2 ug/ml
# [10] = biological target: T3, human TIGIT (Sinobiological Co., Ltd., …); experiment: SPR (Biacore), captured antibody, TIGIT-His as analyte
# [11] = biological target: T2, TIGIT fusion protein with Fc or mFc tag; experiment: HTRF blocking assay: TIGIT-Fc or TIGIT-mFc with biotinylated CD155 as the blocked ligand, ratio 665/620; remark: listed apart in the source
# [12] = biological target: T5, cynoTIGIT-mFc (fusion protein of …); experiment: SPR (Biacore T200), antibody held by Fc affinity capture, cynoTIGIT-mFc in mobile phase, 1:1 Langmuir fit
# T5 sequence (chain, as listed by the source limits assumed): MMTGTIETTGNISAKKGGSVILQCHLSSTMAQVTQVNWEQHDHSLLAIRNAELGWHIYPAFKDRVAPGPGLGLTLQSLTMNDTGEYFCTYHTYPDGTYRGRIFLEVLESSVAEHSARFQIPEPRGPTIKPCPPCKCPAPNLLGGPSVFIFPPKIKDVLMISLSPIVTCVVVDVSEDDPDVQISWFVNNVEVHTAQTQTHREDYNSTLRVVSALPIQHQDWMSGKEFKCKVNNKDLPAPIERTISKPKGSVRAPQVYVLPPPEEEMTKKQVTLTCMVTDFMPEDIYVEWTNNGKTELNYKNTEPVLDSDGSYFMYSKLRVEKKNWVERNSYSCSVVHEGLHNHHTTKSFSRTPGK
binder,measurement,setting,value
B1,EC50,[1],87.2 pM
same,IC50 (read off the curve),[2],~5000 pM
same,Kd,[3],108 pM
same,koff,[3],0.000188 s⁻¹
same,kon,[3],1.74e+06 M⁻¹ s⁻¹
same,IC50 (read off the curve),[4],~3000 pM
same,EC50 (read off the curve),[5],~100 pM
same,IC50 (read off the curve),[6],~1000 pM
same,EC50 (read off the curve),[7],~300 pM
same,binding result,[8],binds
same,IC50,[9],482 pM
B2,Kd,[10],1490 pM
same,koff,[10],0.00209 s⁻¹
same,kon,[10],1.4e+06 M⁻¹ s⁻¹
B3,Kd,[10],556 pM
same,koff,[10],0.000723 s⁻¹
same,kon,[10],1.3e+06 M⁻¹ s⁻¹
B4,Kd,[10],1240 pM
same,koff,[10],0.00171 s⁻¹
same,kon,[10],1.38e+06 M⁻¹ s⁻¹
B5,EC50,[1],109 pM
same,EC50 (read off the curve),[5],~200 pM
same,IC50,[9],678 pM
B6,Kd,[10],249 pM
same,koff,[10],0.000455 s⁻¹
same,kon,[10],1.83e+06 M⁻¹ s⁻¹
B7,IC50 (read off the curve),[11],~1000 pM
B8,IC50 (read off the curve),[11],~1000 pM
B9,IC50 (read off the curve),[11],~1000 pM
B10,EC50,[1],84.8 pM
same,IC50 (read off the curve),[2],~5000 pM
same,Kd,[12],285 pM
same,koff,[12],0.000352 s⁻¹
same,kon,[12],1.24e+06 M⁻¹ s⁻¹
same,Kd,[3],104 pM
same,koff,[3],0.000183 s⁻¹
same,kon,[3],1.75e+06 M⁻¹ s⁻¹
same,IC50 (read off the curve),[11],~1000 pM
same,IC50 (read off the curve),[4],~2000 pM
same,EC50 (read off the curve),[5],~100 pM
same,IC50 (read off the curve),[6],~1000 pM
same,EC50 (read off the curve),[7],~300 pM
same,IC50,[9],499 pM
B11,IC50 (read off the curve),[11],~1000 pM
B12,IC50 (read off the curve),[11],~1000 pM
B13,IC50 (read off the curve),[2],~5000 pM
same,Kd,[12],166 pM
same,koff,[12],0.000404 s⁻¹
same,kon,[12],2.44e+06 M⁻¹ s⁻¹
same,Kd,[3],709 pM
same,koff,[3],0.000379 s⁻¹
same,kon,[3],535000 M⁻¹ s⁻¹
same,IC50 (read off the curve),[6],~1000 pM
